Measurements published in patent US20260217833A1 (APTEVO RESEARCH AND DEVELOPMENT, published 2026).
Where a chain is given by its changes, count along the chain named. Where two headings read alike, the source gives them in different places. Blank lines part the entries; values can stand above or below the binder they belong to.

Legend:
human CD40 full-length [1] = target: T1, human CD40 full-length (human, UniProt P25942 21-277); test: flow cytometry, CHOK1SV/human CD40 cells
T1 construct: Also used for CD40 of Daudi cells, of CD40-expressing HEK293 cells and of the BPS CD40/NFkB HEK293 reporter cells where the row says so; also called CD4001012; CHOK1SV/CD40

Human PD-L1 full-length = target: T2, Human PD-L1 full-length (human, UniProt Q9NZQ7 19-290); test: flow cytometry, CHOK1SV/human PD-L1 cells
T2 construct: also called PDL01021; CHOK1SV/huPDL1
T2 sequence (Q9NZQ7 19-290): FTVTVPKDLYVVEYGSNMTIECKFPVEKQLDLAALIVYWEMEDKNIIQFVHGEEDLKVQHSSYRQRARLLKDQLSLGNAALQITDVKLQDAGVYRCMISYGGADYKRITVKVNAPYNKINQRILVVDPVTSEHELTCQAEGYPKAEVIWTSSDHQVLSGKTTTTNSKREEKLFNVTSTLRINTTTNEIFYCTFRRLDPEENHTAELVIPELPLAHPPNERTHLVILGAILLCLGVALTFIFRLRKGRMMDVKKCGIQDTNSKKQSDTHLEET

human CD40 full-length [2] = target: T1, human CD40 full-length; test: flow cytometry, CHOK1SV/human CD40 cells; remark: listed apart in the source
human CD40 ECD- HAC tag = target: T3, human CD40 ECD- HAC tag (human); test: SPR, binder captured on anti-human IgG, monomeric CD40 ECD injected, 1:1 fit
T3 construct: also called CD4001006; recombinant monomeric human CD40 ectodomain (ECD)

EC50 (read off the curve) (human CD40 full-length [1]): ~5 nM
binding result (Human PD-L1 full-length): binds
B1: CD4001068 (bispecific antibody)
PDL_5F9 x Fc-Knob: EVQLVESGGGLVKPGGSLRLSCAASGFTFSDYGMAWVRQAPGKGLEWVAFITSLAYIIYYADSVKGRFTISRDNAKNSLYLQMNSLRAEDTAVYYCARNYGSSPYYFDYWGQGTLVTVSSGGGGSGGGGSGGGGSGGGGSDIQMTQSPSSLSASVGDRVTITCRASQDINKFLSWYQQKPGKAPKLLIHYTSSLQPGVPSRFSGSGSGTDFTLTISSLQPEDFATYYCLQYDNLYTFGQGTKLEIKEPKSSDKTHTCPPCPAPPAAAPSVFLFPPKPKDTLMISRTPEVTCVVVDVSHEDPEVKFNWYVDGVEVHNAKTKPREEQYNSTYRVVSVLTVLHQDWLNGKEYKCAVSNKALPAPIEKTISKAKGQPREPQVYTLPPSRDELTKNQVSLWCLVKGFYPSDIAVEWESNGQPENNYKTTPPVLDSDGSFFLYSKLTVDKSRWQQGNVFSCSVMHEALHNHYTQKSLSLSPG
CD40_5B9 x Fc-Hole: DVVMTQTPLSLPVSLGDQASISCRSSQSLVHYNGYTYLHWYLQKPGQSPKLLIYKVSNRFSGVPDRFSGSGSGTDFTLKISRVEAEDLGVYFCSQTTHVPLTFGAGTKLELRGGGGSGGGGSGGGGSGGGGSEVMLVESGGGLVKPGGSLKLSCAASGFTFSSYAMSWVRQTPERRLEWVASISSAGTYIYYPDSVKGRFTISRDNAKNILYLQMNSLRSEDTAMYYCARHGNGYDPLWYFDVWGAGTTVTVSSEPKSSDKTHTCPPCPAPPAAAPSVFLFPPKPKDTLMISRTPEVTCVVVDVSHEDPEVKFNWYVDGVEVHNAKTKPREEQYNSTYRVVSVLTVLHQDWLNGKEYKCAVSNKALPAPIEKTISKAKGQPREPQVYTLPPSRDELTKNQVSLSCAVKGFYPSDIAVEWESNGQPENNYKTTPPVLDSDGSFFLVSKLTVDKSRWQQGNVFSCSVMHEALHNRFTQKSLSLSPG

EC50 (read off the curve) (human CD40 full-length [2]): ~5 nM
kon (human CD40 ECD- HAC tag): 240000 M⁻¹ s⁻¹
B2: CD4001132 (Fc fusion)
chain: DVQMTQSPILLSASVGDRVTITCRSSQSLVHYNGYTYVHWYQQKPGKAPKLLIYKVSNLFSGVPSRFSGSGSGTDFTLTISSLQPEDIADYFCQQTTHVPLTFGAGTKVEIKGGGGSGGGGSGGGGSGGGGSEVQLVESGGGLVQPGGSLRLSCAASGFTFSSYAMSWVRQAPGKGLEWVSAISSAGTYIYYADSVKGRFTISRDNSKNTLYLQMNSLRAEDTAVYYCARHGNGYDPLWYFDVWGQGTTVTVSS
notes: As m65; not shown: wildtype IgG1 Fc region

binding result (human CD40 full-length [1]): binds
binding result (Human PD-L1 full-length): binds
B3: CD4001065 (PDL_5F9 x hFc x CD40_5B9) (bispecific antibody)
chain: EVQLVESGGGLVKPGGSLRLSCAASGFTFSDYGMAWVRQAPGKGLEWVAFITSLAYIIYYADSVKGRFTISRDNAKNSLYLQMNSLRAEDTAVYYCARNYGSSPYYFDYWGQGTLVTVSSGGGGSGGGGSGGGGSGGGGSDIQMTQSPSSLSASVGDRVTITCRASQDINKFLSWYQQKPGKAPKLLIHYTSSLQPGVPSRFSGSGSGTDFTLTISSLQPEDFATYYCLQYDNLYTFGQGTKLEIKEPKSSDKTHTCPPCPAPPAAAPSVFLFPPKPKDTLMISRTPEVTCVVVDVSHEDPEVKFNWYVDGVEVHNAKTKPREEQYNSTYRVVSVLTVLHQDWLNGKEYKCAVSNKALPAPIEKTISKAKGQPREPQVYTLPPSRDELTKNQVSLTCLVKGFYPSDIAVEWESNGQPENNYKTTPPVLDSDGSFFLYSKLTVDKSRWQQGNVFSCSVMHEALHNHYTQKSLSLSPGGGGSPSDVVMTQTPLSLPVSLGDQASISCRSSQSLVHYNGYTYLHWYLQKPGQSPKLLIYKVSNRFSGVPDRFSGSGSGTDFTLKISRVEAEDLGVYFCSQTTHVPLTFGAGTKLELRGGGGSGGGGSGGGGSGGGGSEVMLVESGGGLVKPGGSLKLSCAASGFTFSSYAMSWVRQTPERRLEWVASISSAGTYIYYPDSVKGRFTISRDNAKNILYLQMNSLRSEDTAMYYCARHGNGYDPLWYFDVWGAGTTVTVSS
notes: ADAPTIR format, anti-PD-L1 scFv on N-terminus, anti-CD40 scFv on C-terminus; also called CD4001065 (5B9)

binding result (human CD40 full-length [1]): binds
binding result (Human PD-L1 full-length): binds
B4: CD4001077 (bispecific antibody)
PDL_5F9 x Fc-Knob: B1 PDL_5F9 x Fc-Knob
PDL_5F9 x Fc-Hole x CD40_5B9: B3 chain with T396S, L398A, Y437V, H465R, Y466F

binding result (human CD40 full-length [1]): binds
binding result (Human PD-L1 full-length): binds
B5: CD4001080 (bispecific antibody)
Fc-knob x CD40_5B9: EPKSSDKTHTCPPCPAPPAAAPSVFLFPPKPKDTLMISRTPEVTCVVVDVSHEDPEVKFNWYVDGVEVHNAKTKPREEQYNSTYRVVSVLTVLHQDWLNGKEYKCAVSNKALPAPIEKTISKAKGQPREPQVYTLPPSRDELTKNQVSLWCLVKGFYPSDIAVEWESNGQPENNYKTTPPVLDSDGSFFLYSKLTVDKSRWQQGNVFSCSVMHEALHNHYTQKSLSLSPGGGGSPSDVVMTQTPLSLPVSLGDQASISCRSSQSLVHYNGYTYLHWYLQKPGQSPKLLIYKVSNRFSGVPDRFSGSGSGTDFTLKISRVEAEDLGVYFCSQTTHVPLTFGAGTKLELRGGGGSGGGGSGGGGSGGGGSEVMLVESGGGLVKPGGSLKLSCAASGFTFSSYAMSWVRQTPERRLEWVASISSAGTYIYYPDSVKGRFTISRDNAKNILYLQMNSLRSEDTAMYYCARHGNGYDPLWYFDVWGAGTTVTVSS
PDL_5F9 x Fc-Hole x CD40_5B9: B3 chain with T396S, L398A, Y437V, H465R, Y466F

EC50 (read off the curve) (human CD40 full-length [2]): ~7 nM
Kd (human CD40 ECD- HAC tag): 85 nM
koff (human CD40 ECD- HAC tag): 0.019 s⁻¹
kon (human CD40 ECD- HAC tag): 230000 M⁻¹ s⁻¹
B6: CD4001133 (Fc fusion)
VH: EVQLVESGGGLVQPGGSLRLSCAASGFTFSSYAMSWVRQAPGKGLEWVSAISSAGTYIYYADSVKGRFTISRDNSKNTLYLQMNSLRAEDTAVYYCARHGNGYDPLWYFDVWGQGTTVTVSS
VL: DIQMTQSPSSLSASVGDRVTITCRASQSLVHYNGYTYLNWYQQKPGKAPKLLIYKVSNRFSGVPDRFSGSGSGTDFTLTISSLQPEDFATYYCQQTTHVPLTFGQGTKVEIK
notes: Tested as scFv on the N-terminus of a wildtype IgG1 Fc region; also called Humanized 5B9

binding result (human CD40 full-length [1]): binds
binding result (Human PD-L1 full-length): binds
B7: CD4001048 (bispecific antibody)
scFv-Fc-scFv chain: DVVMTQTPLSLPVSLGDQASISCRSSQSLVHYNGYTYLHWYLQKPGQSPKLLIYKVSNRFSGVPDRFSGSGSGTDFTLKISRVEAEDLGVYFCSQTTHVPLTFGAGTKLELRGGGGSGGGGSGGGGSGGGGSEVMLVESGGGLVKPGGSLKLSCAASGFTFSSYAMSWVRQTPERRLEWVASISSAGTYIYYPDSVKGRFTISRDNAKNILYLQMNSLRSEDTAMYYCARHGNGYDPLWYFDVWGAGTTVTVSSEPKSSDKTHTCPPCPAPPAAAPSVFLFPPKPKDTLMISRTPEVTCVVVDVSHEDPEVKFNWYVDGVEVHNAKTKPREEQYNSTYRVVSVLTVLHQDWLNGKEYKCAVSNKALPAPIEKTISKAKGQPREPQVYTLPPSRDELTKNQVSLTCLVKGFYPSDIAVEWESNGQPENNYKTTPPVLDSDGSFFLYSKLTVDKSRWQQGNVFSCSVMHEALHNHYTQKSLSLSPGGGGSPSEVQLVESGGGLVKPGGSLRLSCAASGFTFSDYGMAWVRQAPGKGLEWVAFITSLAYIIYYADSVKGRFTISRDNAKNSLYLQMNSLRAEDTAVYYCARNYGSSPYYFDYWGQGTLVTVSSGGGGSGGGGSGGGGSGGGGSDIQMTQSPSSLSASVGDRVTITCRASQDINKFLSWYQQKPGKAPKLLIHYTSSLQPGVPSRFSGSGSGTDFTLTISSLQPEDFATYYCLQYDNLYTFGQGTKLEIK
notes: also called CD40_5B9 x hFc x PDL_5F9

EC50 (read off the curve) (human CD40 full-length [1]): ~2 nM
binding result (Human PD-L1 full-length): binds
B8: CD4001074 (bispecific antibody)
CD40_5B9 x Fc-Knob: B1 CD40_5B9 x Fc-Hole with S404W, A406L, V445Y, R473H, F474Y
CD40_5B9 x Fc-Hole x PDL_5F9: B7 scFv-Fc-scFv chain with T404S, L406A, Y445V, H473R, Y474F
